# Source: publication PMC2191257
# B1: MSV LTR (dsDNA)
# DNA 1: TCGGAGACGGAAGCGCGC
# DNA 2: GCGCGCTTCCGTCTCCGA
# Target: t-Elf-1 (truncated Elf-1) (UniProt P32519 108-304)
# Experiment: EMSA
# Sequence of t-Elf-1 (truncated Elf-1) (P32519 108-304): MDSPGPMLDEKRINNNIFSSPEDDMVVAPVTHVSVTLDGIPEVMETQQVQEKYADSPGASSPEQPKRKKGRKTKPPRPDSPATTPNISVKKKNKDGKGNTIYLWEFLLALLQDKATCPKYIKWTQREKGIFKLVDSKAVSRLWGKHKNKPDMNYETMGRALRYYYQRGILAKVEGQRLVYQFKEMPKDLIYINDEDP
binder,measurement,value
B1,binding result,binds
